Measured values reported in patent US20220251236A1 (Boehringer Ingelheim, published 2022).
Positions count from the first letter of the chain named.

Key:
Human DLL3-His [1] = molecular target: T1, Human DLL3-His (human, UniProt Q9NYJ7 27-492); assay: SPR (ProteOn XPR36), bispecific captured on protein A/G, DLL3 as analyte, Example 4A; Table 2A (Example 4A SPR run)
T1 construct: also called huDLL3-His; hu DLL3
T1 sequence: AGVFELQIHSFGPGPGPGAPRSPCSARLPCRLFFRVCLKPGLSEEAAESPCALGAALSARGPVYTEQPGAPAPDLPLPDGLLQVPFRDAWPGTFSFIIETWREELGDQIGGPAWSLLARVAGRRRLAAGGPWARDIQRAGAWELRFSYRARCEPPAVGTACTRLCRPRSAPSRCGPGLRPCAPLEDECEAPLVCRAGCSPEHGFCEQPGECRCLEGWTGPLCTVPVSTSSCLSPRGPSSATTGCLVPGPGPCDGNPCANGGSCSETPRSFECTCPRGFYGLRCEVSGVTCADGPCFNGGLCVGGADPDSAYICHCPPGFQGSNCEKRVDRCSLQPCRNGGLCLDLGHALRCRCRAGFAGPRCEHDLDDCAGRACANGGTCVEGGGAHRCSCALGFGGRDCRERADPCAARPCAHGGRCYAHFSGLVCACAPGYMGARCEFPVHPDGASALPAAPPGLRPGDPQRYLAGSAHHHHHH
Description: (§1) The binding affinity of purified DLL3/CD3 bispecific constructs for recombinant human and cyno DLL3-ECD and Fc-fusion proteins of human and cyno CD3 εγ subunits was determined by Surface Plasmon Resonance (SPR), using a ProteOn XPR36 instrument (Bio-Rad). The running buffer and all dilutions (except where stated) were done in PBS-T-EDTA. The GLM sensor chip (Bio-Rad) was normalized and pre-conditioned as per the manufacturer's recommendations. The sensor chip was activated with equal mixture of EDC/s-NHS in the horizontal direction for 300 sec at a flow rate of 30 ul/min and immobilized with protein A/G (20 ug/ml in 10 mM acetate pH 4.5) in the horizontal direction for 300 sec at a flowrate of 30 ul/min resulting in ˜5000 RU of protein A/G on the surface. The sensor chip was deactivated with 1M ethanolamine HCl in the horizontal direction for 300 sec at a flowrate of 30 μl/min.
For binding kinetic determination to DLL3, bispecific molecules were captured individually on the protein A/G surface vertically for 250 sec at a flowrate of 25 μl/min. The baseline was stabilized by injecting PBS-T-EDTA for 60 sec at a flowrate of 40 μl/min horizontally. The analyte (hu DLL3 or cy DLL3) was injected horizontally over the captured antibody for 600 sec at a flowrate of 40 μl/min and a dissociation for 2700 sec. […]

EGF3+4 = molecular target: T2, EGF3+4; assay: flow cytometry on HEK293 cells expressing the DLL3 subdomain construct, 1.6 nM binder, PE anti-human secondary, control: secondary antibody only
T2 construct: also called Hu DLL3 EGF3+4 on HEK293 cells
T2 membrane-anchored DLL3 subdomain construct: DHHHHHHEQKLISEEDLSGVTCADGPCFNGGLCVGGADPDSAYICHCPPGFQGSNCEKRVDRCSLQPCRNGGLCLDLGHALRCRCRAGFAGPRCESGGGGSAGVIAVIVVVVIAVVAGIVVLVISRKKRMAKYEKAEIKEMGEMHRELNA
Procedure, shortened: (§2)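 Binders tested on HEK293 cells displaying the DLL3 subdomain construct; bound molecules detected by flow cytometry using PE-conjugated anti-human secondary antibody. Negative control: cells with secondary antibody only.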

EGF4+5 = molecular target: T3, EGF4+5; assay: as above
T3 construct: also called Hu DLL3 EGF4+5 on HEK293 cells
T3 membrane-anchored DLL3 subdomain construct: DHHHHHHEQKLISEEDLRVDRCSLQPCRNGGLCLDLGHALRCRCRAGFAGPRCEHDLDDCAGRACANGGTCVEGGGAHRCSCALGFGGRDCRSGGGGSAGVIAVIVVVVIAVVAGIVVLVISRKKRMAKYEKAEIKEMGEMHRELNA
Procedure, shortened: as §2

EGF1+2 = molecular target: T4, EGF1+2; assay: as above
T4 construct: also called Hu DLL3 EGF1+2 on HEK293 cells
T4 membrane-anchored DLL3 subdomain construct: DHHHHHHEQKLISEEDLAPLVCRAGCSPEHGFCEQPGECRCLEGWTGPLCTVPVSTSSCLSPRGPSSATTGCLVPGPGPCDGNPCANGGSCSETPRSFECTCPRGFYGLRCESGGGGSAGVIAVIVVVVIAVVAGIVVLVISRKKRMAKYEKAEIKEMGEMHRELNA
Procedure, shortened: as §2

Human DLL3-His [2] = molecular target: T1, Human DLL3-His; assay: SPR (ProteOn XPR36), bispecific captured on protein A/G, DLL3 as analyte, Example 4A
Description: as §1
For binding kinetic determination to DLL3, bispecific molecules were captured individually on the protein A/G surface vertically for 250 sec at a flowrate of 25 μl/min. The baseline was stabilized by injecting PBS-T-EDTA for 60 sec at a flowrate of 40 μl/min horizontally. The analyte (hu DLL3 or cy DLL3) was injected horizontally over the captured antibody for 600 sec at a flowrate of 40 μl/min and a dissociation for 2700 sec.
The inter spot (interactions with sensor surface) and blank (PBS-T-EDTA) were subtracted from the raw data.

B1: DLL3#3/CD3#1 (bispecific antibody, human IgG1, kappa, lambda, L234A L235A)
chain 1: DIQMTQSPSAMSASVGDRVTITCRASQGISNYLVWFQQKPGKAPKRLIYAVSSLYSGVPSRFSGSGSGTEFTLTISSLQPEDFATYYCLQHDSYPYTFGQGTKLEIKRTVAAPSVFIFPPSDEQLKSGTASVVCLLNNFYPREAKVQWKVDNALQSGNSQESVTEQDSKDSTYSLSSTLTLSKADYEKHKVYACEVTHQGLSSPVTKSFNRGECGGGGSEGKSSGSGSESKSTEGKSSGSGSESKSTGGGGSQVQLVQSGAEVKKPGASVKVSCKASGYTFTSYYVHWVRQAPGQGLEWMVIINPGGGTTSYAQKFLGRVTMTRDTSTNTVYMELKSLRSEDTAVYYCARGEAVTGNYFYYGMDVWGQGTTVTVSSASTKGPSVFPLAPSSKSTSGGTAALGCLVKDYFPEPVTVSWNSGALTSGVHTFPAVLQSSGLYSLSSVVTVPSSSLGTQTYICNVNHKPSNTKVDKRVEPKSCDKTHTCPPCPAPEAAGGPSVFLFPPKPKDTLMISRTPEVTCVVVDVSHEDPEVKFNWYVDGVEVHNAKTKPREEQYNSTYRVVSVLTVLHQDWLNGKEYKCKVSNKALPAPIEKTISKAKGQPREPQVYTLPPSREEMTKNQVSLWCLVKGFYPSDIAVEWESNGQPENNYKTTPPVLDSDGSFFLYSKLTVDKSRWQQGNVFSCSVMHEALHNHYTQKSLSLSPG
chain 2: EAVVTQEPSLTVSPGGTVTLTCRSSTGAVTTSNYANWVQEKPGQLPRGLIGGTNKRAPWVPARFSGSLLGGKAALTLSGAQPEDEAEYFCALWYSNLWVFGGGTKLTVLGQPKAAPSVTLFPPSSEELQANKATLVCLISDFYPGAVKVAWKADGSPVNTGVETTTPSKQSNNKYAASSYLSLTPEQWKSHRSYSCQVTHEGSTVEKTVAPAECSGGGGSEGKSSGSGSESKSTEGKSSGSGSESKSTGGGGSEVQLVESGGGLVQPGGSLKLSCAASGFTFNTYAMNWVRQAPGKGLEWVARIRSKYNNYATYYADSVKDRFTISRDDSKNTAYLQMNNLKTEDTAVYYCVRHGNFGNSYVSWFAYWGQGTLVTVSAASTKGPSVFPLAPSSKSTSGGTAALGCLVKDYFPEPVTVSWNSGALTSGVHTFPAVLQSSGLYSLSSVVTVPSSSLGTQTYICNVNHKPSNTKVDKRVEPKSCDKTHTCPPCPAPEAAGGPSVFLFPPKPKDTLMISRTPEVTCVVVDVSHEDPEVKFNWYVDGVEVHNAKTKPREEQYNSTYRVVSVLTVLHQDWLNGKEYKCKVSNKALPAPIEKTISKAKGQPREPQVYTLPPSREEMTKNQVSLSCAVKGFYPSDIAVEWESNGQPENNYKTTPPVLDSDGSFFLVSKLTVDKSRWQQGNVFSCSVMHEALHNRFTQKSLSLSPG
notes: Heterodimer of one DLL3 chain and one CD3 chain (scFab-Fc, knob-in-hole)
With B1 the Kd (Human DLL3-His [1]) was < 0.01 nM.

B2: DLL3#4/CD3#1 (bispecific antibody, human IgG1, kappa, lambda, L234A L235A)
chain 1: not shown
chain 2: B1 chain 2
notes: as for B1
B2: binds (EGF3+4); binds (EGF4+5).

B3: DLL3#5/CD3#1 (bispecific antibody, human IgG1, kappa, lambda, L234A L235A)
chain 1: not shown
chain 2: B1 chain 2
notes: as for B1
B3: binds (EGF1+2).

B4: DLL3#3/CD3#2 (bispecific antibody, human IgG1, kappa, lambda, L234A L235A)
chain 1: B1 chain 1
chain 2: B1 chain 2 with N309I
notes: as for B1
For B4, the Kd (Human DLL3-His [2]) was < 0.01 nM.
